These results are taken from the supplement of paper PMC7877785.

± gives the uncertainty stated by the source.

The data set in a line: self-splicing fitness, log relative to wild type (ln ratio); higher = more splicing; Tetrahymena group I intron in knt gene, E. coli kanamycin selection, DiMSum; sequences stand for … in CUCUCU…GGAGGGAAAAGUUAUCAGGCAUGCACCUGGUAGCUAGUCUUUAAACCAAUAGAUUGCAUCGGUUUAAAAGGCAAGACCGUCAAAUUGCGGGAAAGGGGUCAACAGCCGUUCAGUACCAAGUCUCAGGGGAAACUUUGAGAUGGCCUUGCAAAGGGUAUGGUAAUAAGCUGACGGACAUGGUCCUAACCACGCAGCCAAGUCCUAAGUCAACAGAUCUUCUGUUGAUAUGGAUGCAGUUCACAGACUAAAUGUCGGUCGGGGAAGAUGUAUUCUUCUCAUAAGAUAUAGUCGGACCUCUCCUUAAUGGGAGCUAGCGGAUGAAGUGAUGCAACACUGGAGCCGCUGGGAACUAAUUUGUAUGCGAAAGUAUAUUGAUUAGUUUUGGAGUACUCGUGGUCG
In outline:
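Fitness was computed with DiMSum as the error-weighted combination of replicate fold changes, kanamycin versus none, each normalised to wild type. The library randomised all eight intron nucleotides of the P1ex region, with the intron placed in the knt kanamycin-resistance gene on pET-22b(+) in E. coli BL21(DE3). Six replicate transformations were grown overnight at 37°C or 30°C on LB agar with or without 25 μg/mL kanamycin, plus 100 μg/mL carbenicillin, 50 μM IPTG and 0.2% rhamnose. Pooled colonies were amplicon-sequenced on an Illumina HiSeq 2500.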

Regarding UUACAGCAAUAUUACGACCA, the “self-splicing fitness (ln)” value runs as follows: (30 °C) -0.658 ± 0.14; (37 °C) -0.854 ± 0.18.
For UUACAGCAAUAUUACGACCC, in that order: -2.6 ± 0.32 and -2.14 ± 0.44.
Consider UUACAGCAAUAUUACGAGUC, for which the “self-splicing fitness (ln)” value was -4.54 ± 0.3 (30 °C) and -2.84 ± 0.26 (37 °C).
For UUACAGCAAUAUUACGAGUG the same measures were -1.16 ± 0.069 and -0.895 ± 0.079.
As for UUACAGCAAUAUUACGAUCG, the “self-splicing fitness (ln)” value was -0.32 ± 0.09 (30 °C) and -0.268 ± 0.11 (37 °C).
Turning to UUACAGCAAUAUUACGCGAA, the “self-splicing fitness (ln)” value runs as follows: (30 °C) -1.02 ± 0.12; (37 °C) -0.94 ± 0.11.
For UUACAGCAAUAUUACGCGGU the same measures were -2.9 ± 0.12 and -3.15 ± 0.24.
As for UUACAGCAAUAUUACGCUAA, the “self-splicing fitness (ln)” value by setting is: (30 °C) -2.01 ± 0.13; (37 °C) -0.87 ± 0.11.
For UUACAGCAAUAUUACGCUAC the same measures were -3.71 ± 0.22 and -1.96 ± 0.24.
UUACAGCAAUAUUACGCUGA: the “self-splicing fitness (ln)” value by setting is: (30 °C) -3.22 ± 0.17; (37 °C) -2.55 ± 0.19.
For UUACAGCAAUAUUACGGCAC the same measures were -1.77 ± 0.17 and -2.26 ± 0.18.
For UUACAGCAAUAUUACGGCAG the same measures were -0.142 ± 0.077 and 0.248 ± 0.11.
For UUACAGCAAUAUUACGGGCA, in that order: -1.01 ± 0.1 and -0.657 ± 0.11.
For UUACAGCAAUAUUACGGGUA, the “self-splicing fitness (ln)” value was -1.94 ± 0.097 (30 °C) and -0.854 ± 0.087 (37 °C).
UUACAGCAAUAUUACGGUGG: the “self-splicing fitness (ln)” value is -1.08 ± 0.087 (30 °C) and -0.457 ± 0.1 (37 °C).
For UUACAGCAAUAUUACGUAUC, in that order: -3.33 ± 0.19 and -3.28 ± 0.24.
UUACAGCAAUAUUACGUCAC: for the setting “37 °C”, the “self-splicing fitness (ln)” value was -1.8 ± 0.23.
Take UUACAGCAAUAUUACGUCCC: the “self-splicing fitness (ln)” value by setting is: (30 °C) -3.48 ± 0.24; (37 °C) -1.31 ± 0.25.
For UUACAGCAAUAUUACGUCCU, in that order: -2.11 ± 0.1 and -0.74 ± 0.089.
For UUACAGCAAUAUUACGUCGC the same measures were -2.92 ± 0.17 and -2.55 ± 0.18.
For UUACAGCAAUAUUACGUCUA the same measures were -0.0634 ± 0.086 and -0.0325 ± 0.079.
Turning to UUACAGCAAUAUUACGUCUG, the “self-splicing fitness (ln)” value was -1.59 ± 0.13 (30 °C) and -1.07 ± 0.12 (37 °C).
For UUACAGCAAUAUUACGUGAU, in that order: -4.22 ± 0.19 and -2.37 ± 0.17.
In the case of UUACAGCAAUAUUACGUGCG, the “self-splicing fitness (ln)” value runs as follows: (30 °C) -0.895 ± 0.092; (37 °C) -0.0854 ± 0.12.
As to UUACAGCAAUAUUACGUUGC, the “self-splicing fitness (ln)” value (30 °C) is -3.56 ± 0.37 and the “self-splicing fitness (ln)” value (37 °C) is -2.37 ± 0.26.
As to UUAGAGCAAUAUUACGAAAC, the “self-splicing fitness (ln)” value (30 °C) is -2.21 ± 0.41.
As for UUAGAGCAAUAUUACGACAG, the “self-splicing fitness (ln)” value by setting is: (30 °C) -0.55 ± 0.082; (37 °C) -0.391 ± 0.1.
For UUAGAGCAAUAUUACGAUGG, in that order: -1.02 ± 0.15 and 0.108 ± 0.19.
As to UUAGAGCAAUAUUACGCAGC, the “self-splicing fitness (ln)” value (30 °C) is -3.08 ± 0.35.
For UUAGAGCAAUAUUACGCCCG, the “self-splicing fitness (ln)” value reads like this: (30 °C) -1.21 ± 0.11; (37 °C) -0.643 ± 0.19.
For UUAGAGCAAUAUUACGGAAA, in that order: -2.59 ± 0.19 and -1.72 ± 0.23.
For UUAGAGCAAUAUUACGGGAU the same measures were -3.45 ± 0.39 and -2.97 ± 0.4.
For UUAGAGCAAUAUUACGGUGC the same measures were -3.76 ± 0.28 and -2.11 ± 0.36.
For the sequence UUAGAGCAAUAUUACGUAAG, the “self-splicing fitness (ln)” value reads like this: (30 °C) -2.23 ± 0.097; (37 °C) -1.2 ± 0.1.
For UUAGAGCAAUAUUACGUCCU the same measures were -1.36 ± 0.21 and -1.87 ± 0.31.
Consider UUAGAGCAAUAUUACGUUAC, for which, where the note is “37 °C”, the “self-splicing fitness (ln)” value was -2.17 ± 0.46.
In the case of UUAGAGCAAUAUUACGUUGG, the “self-splicing fitness (ln)” value is -1.89 ± 0.1 (30 °C) and -1.59 ± 0.14 (37 °C).
Regarding UUAGAGCAAUAUUACGUUUA, the “self-splicing fitness (ln)” value (30 °C) was -2.01 ± 0.13 and the “self-splicing fitness (ln)” value (37 °C) is -0.913 ± 0.15.
For UUAGAGCAAUAUUACGUUUG the same measures were -2.04 ± 0.11 and -1.05 ± 0.14.
